Measurements reported in patent US20240174744A1 (SCIRHOM, published 2024).
Positions count from the first letter of the chain named.

How the values were obtained:
[1] = target: T1, hiR1-FL-WT-T7 (human iRhom1 full length wild type C-terminally tagged with 3 consecutive copies of the T7 … (human, UniProt Q96CC6 1-855)); test: FACS on cells of the row human iR1 wild type, vs human iR2 wild type = 100%
T1 construct: also called human iRhom1 variant expressed by MEF-DKO-hiR1-FL-WT-T7 cells
T1 sequence: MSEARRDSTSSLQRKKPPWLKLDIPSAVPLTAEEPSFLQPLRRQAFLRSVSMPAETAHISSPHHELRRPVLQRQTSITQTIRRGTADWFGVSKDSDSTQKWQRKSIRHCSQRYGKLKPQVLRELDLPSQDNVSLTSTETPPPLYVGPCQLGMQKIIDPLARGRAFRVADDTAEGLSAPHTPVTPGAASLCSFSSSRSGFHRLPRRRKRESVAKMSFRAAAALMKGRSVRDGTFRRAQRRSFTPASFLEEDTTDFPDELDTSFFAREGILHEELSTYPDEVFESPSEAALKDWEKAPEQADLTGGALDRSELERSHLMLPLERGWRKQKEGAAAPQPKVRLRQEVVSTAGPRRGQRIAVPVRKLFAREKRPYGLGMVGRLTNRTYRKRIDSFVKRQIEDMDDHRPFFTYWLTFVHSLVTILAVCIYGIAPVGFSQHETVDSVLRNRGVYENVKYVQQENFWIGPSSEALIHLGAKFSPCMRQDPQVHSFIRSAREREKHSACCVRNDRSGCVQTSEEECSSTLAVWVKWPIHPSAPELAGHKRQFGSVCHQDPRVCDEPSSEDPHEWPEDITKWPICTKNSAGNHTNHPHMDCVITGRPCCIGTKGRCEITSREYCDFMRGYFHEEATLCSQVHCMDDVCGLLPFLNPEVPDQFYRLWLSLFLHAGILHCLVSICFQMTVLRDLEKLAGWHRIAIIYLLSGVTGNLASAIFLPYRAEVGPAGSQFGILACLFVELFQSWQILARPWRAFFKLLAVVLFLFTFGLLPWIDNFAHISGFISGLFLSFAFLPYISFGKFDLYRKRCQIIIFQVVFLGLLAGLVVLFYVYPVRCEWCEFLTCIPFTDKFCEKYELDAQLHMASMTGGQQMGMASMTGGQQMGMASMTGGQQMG

[2] = target: T2, miR2-FL-WT-FLAG (mouse iRhom2 full length wild type C-terminally tagged with the triple-FLAG epitope) (mouse, UniProt Q80WQ6 1-827); test: FACS, MEF-DKO-miR2-FL-WT-FLAG cells
T2 construct: also called expressed by MEF-DKO-miR2-FL-WT-FLAG cells
T2 sequence: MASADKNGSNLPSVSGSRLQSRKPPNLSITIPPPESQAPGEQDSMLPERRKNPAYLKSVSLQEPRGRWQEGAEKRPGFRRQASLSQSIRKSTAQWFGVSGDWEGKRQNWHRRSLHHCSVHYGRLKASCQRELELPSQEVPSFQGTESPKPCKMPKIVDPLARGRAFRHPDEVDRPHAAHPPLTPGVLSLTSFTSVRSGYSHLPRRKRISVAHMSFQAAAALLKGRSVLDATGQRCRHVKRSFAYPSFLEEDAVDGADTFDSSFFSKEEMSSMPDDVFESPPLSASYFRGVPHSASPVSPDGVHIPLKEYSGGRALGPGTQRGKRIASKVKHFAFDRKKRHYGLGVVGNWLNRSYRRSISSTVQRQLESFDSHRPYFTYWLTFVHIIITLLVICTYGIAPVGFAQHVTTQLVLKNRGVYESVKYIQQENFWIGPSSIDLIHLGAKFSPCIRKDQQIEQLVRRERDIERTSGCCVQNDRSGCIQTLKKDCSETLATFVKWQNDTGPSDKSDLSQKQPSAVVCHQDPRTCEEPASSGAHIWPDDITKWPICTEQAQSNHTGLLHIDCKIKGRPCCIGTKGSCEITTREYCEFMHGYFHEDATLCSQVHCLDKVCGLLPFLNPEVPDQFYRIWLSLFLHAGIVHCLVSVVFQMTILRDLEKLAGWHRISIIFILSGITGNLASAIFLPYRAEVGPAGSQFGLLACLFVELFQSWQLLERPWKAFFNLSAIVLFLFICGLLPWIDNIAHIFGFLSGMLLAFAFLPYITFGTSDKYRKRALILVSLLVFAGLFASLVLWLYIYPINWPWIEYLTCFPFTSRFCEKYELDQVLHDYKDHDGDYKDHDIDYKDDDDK
Description: In brief, immortalized MEF-DKO-EV control cells, MEF-DKO-hiR2-FL-WT-FLAG cells and MEF-DKO-miR2-FL-WT-FLAG cells were harvested with 10 mM EDTA in PBS, washed and resuspended in FACS buffer (PBS, 3% FBS, 0.05% sodium azide), and seeded in Nunc U-bottom 96-well plates (Thermo Fisher Scientific, USA) at approximately 3×10⁵ cells per well. To pellet cells and remove supernatants, the plates were centrifuged at 1,500 rpm and 4° C. for 3 minutes. For primary staining, cells were resuspended in 100 μl per well of either FACS buffer alone (controls), mouse monoclonal anti-FLAG IgG (Sigma-Aldrich, USA) at 3 μg/ml FACS buffer or the antibodies of the present disclosure also at 3 μg/ml FACS buffer and incubated on ice for 1 hour. Afterwards, plates were centrifuged at 1,500 rpm and 4° C. for 3 minutes and washed twice with 200 μl per well of FACS buffer. For secondary staining, cells were spun down and resuspended in 100 μl per well of PE-conjugated goat anti-mouse IgG F(ab′)2 detection fragment (Dianova, Germany) diluted 1:100 in FACS buffer. Protected from light, the cell suspensions were incubated on ice for 1 hour. Plates were then centrifuged at 1,500 rpm and 4° C. for 3 minutes and washed three times with 200 μl per well of FACS buffer. Finally, cells were resuspended in 150 μl per well of FACS buffer and analyzed using a BD Accuri™ C6 Plus flow cytometer (Becton Dickinson, Germany).

B1: antibody 43 (antibody, V domains shown)
VH: QVALKESGPGILQPSQTLSLTCSFSGFSLSTFGMGVGWIRQSSGKGLEWLANIWWDDDKYYNPALKSRLTISKDASKNQAFLKIANVDTADTATYYCARIGNYGSNYWYFDVWGTGTTVTVSS
VL: QIVLTQSPAIMSASPGERVTMTCSANSRISYMYWYQQKPGSSPRLLIYDTSNLASGVPVRFSGSGSGTSYSLTISRMEAEDAATYNCQQWSSYPLTFGAGTKLELK
notes: Mouse IgG, kappa light chain; also called clone #43
B1 was tested, and the “grade of loss of binding vs wild type” value [1] was 3 grade (3 => 95% loss of binding vs wild type) and the binding result [2] was “no binding (tested: 3 µg/ml)”.

B2: antibody 44 (antibody, V domains shown)
VH: B1 VH with A3T, S42P, G44E, N52H, A75T, A80I, A85T, D91E, A98S
VL: QIVLTQSPAVMSASPGEKVTMTCTASSSVYYMYWYQQTPGSSPRLLIYDTSNLASGVPVRFSGSGSGTSYSLTISRMEAEDAATYYCQQWNTYPLTFGAGTKLELK
notes: Mouse IgG, kappa light chain; also called clone #44; m44
B2 was tested, and the “grade of loss of binding vs wild type” value [1] was 3 grade (3 => 95% loss of binding vs wild type) and the binding result [2] was “no binding (tested: 3 µg/ml)”.

B3: antibody 16 (antibody, V domains shown)
VH: QVTLKESGPGILQPSQTLSLTCSFSGFSLSTFALGVGWIRQPSGRGLEWLAHIWWDDDKYYNPALKSRLTISKDTSKNHVFLKIANVDTADTATYYCARITTYYYGMDYWGQGTSVTVSS
VL: DIVLSQSPATLSVTPGDSVSLFCRASQSIGNHLHWYQQESHASPRLLIKYASQSISGIPSRFSGSGSGTDFTLSINSVETEDFGMYFCQQSYNWPLTFGAGTKLELK
notes: Mouse IgG, kappa light chain; also called clone #16; m16
In the case of B3, the “grade of loss of binding vs wild type” value [1] is reported as 3 grade (3 => 95% loss of binding vs wild type) and the binding result [2] is reported as “no binding (tested: 3 µg/ml)”.

B4: antibody 5 (antibody, V domains shown)
VH: B1 VH with A3T, S42P, N52H, D58E, P63S, D74A, A75T, G101S, D111N
VL: QVVLTQSPALMSASPGEKVTMTCSAGSSVSCMYWYQQKPGSSPRVLIYDTSNLASGVPARFTGSGSGTSYSLTISRMEAEDAASYYCQQWNSYPLTFGAGTKLELK
notes: Mouse IgG, kappa light chain; also called clone #5; purified antibody 5
In the case of B4, the “grade of loss of binding vs wild type” value [1] is reported as 3 grade (3 => 95% loss of binding vs wild type) and the binding result [2] is reported as “no binding (tested: 3 µg/ml)”.

B5: antibody 22 (antibody, V domains shown)
VH: B1 VH with A3T, S42P, N52H, D58E, P63S, D74A, A75T, A80V, G101S, D111N
VL: B4 VL with C31Y, S84T
notes: Mouse IgG, kappa light chain; also called clone #22; m22
With B5 the “grade of loss of binding vs wild type” value [1] was 3 grade (3 => 95% loss of binding vs wild type) and the binding result [2] was “no binding (tested: 3 µg/ml)”.

B6: antibody 42 (antibody, V domains shown)
VH: B1 VH with A3T, F24L, M34R, S42P, N52H, D58E, A75T, A80V, K83R, G101Q
VL: B1 VL with Q1L, R18K, S24G, N26T, Y33F, L45V, M77V, A82V, N86Y, S91N
notes: Mouse IgG, kappa light chain; also called clone #42; m42
B6 was tested, and the “grade of loss of binding vs wild type” value [1] was 3 grade (3 => 95% loss of binding vs wild type) and the binding result [2] was “no binding (tested: 3 µg/ml)”.

B7: antibody 3 (antibody, V domains shown)
VH: QVTLKESGPGILQPSQTLSLTCSFSGFSLTTFAMGIGWVRQPSGKGLEWLAHIWWDGEKYNNPVLKSRLTISKDTSKNQVFLRIANVDTPDTATYYCARISSIYYIIDNWGQGTSVTVSS
VL: B3 VL with S5T, D17H, F22S, G30S, H32N, Q38K, E39K, A42E, A51V
notes: Mouse IgG, kappa light chain; also called clone #3; purified antibody 3
For B7, the “grade of loss of binding vs wild type” value [1] was 3 grade (3 => 95% loss of binding vs wild type).

B8: antibody 46 (antibody, V domains shown)
VH: QVTLKESGPGILQPSQTLSLTCSFSGFSLSTFGMGVGWIRQPSGKGLEWLAHIWWDDDNYYNQALKSRLTISKDNTKNQVFLNIANVDTADTATYYCARIRSYDYDVRYAMDYWGQGTSVTVSS
VL: DIKMTQSPSSMYASLRERVTITCKASQDINSYLSWFQQKPGKSPKTLIYRANRLVDGVPSRFSGSGSGQDYSLTISSLEYEDLGIYYCQQYYEFPLTFGAGTRLELK
notes: Mouse IgG, kappa light chain; also called clone #46
B8: no binding (tested: 3 µg/ml) [2].

B9: antibody 57 (antibody, V domains shown)
VH: B1 VH with A3T, S42P, N52H, A75T, A80I, T92S, Y95F, G101E
VL: B2 VL with V10I, T24S, Y30S, T38K, L45V, I74V, T92S
notes: Mouse IgG, kappa light chain; also called clone #57
B9: no binding (tested: 3 µg/ml) [2].

B10: antibody 49 (antibody, V domains shown)
VH: QVTLKESGPGILQPSQTLSLTCSFSGFSLSTFGMGVGWIRQPSGKGLEWLAHIWWDDDKYYNPALQSRLTVSKDTAKNQVFLKIANVDTADTAIYYCARVGNYGSNYWYFAVWGTGTTVTVSS
VL: B2 VL with V10I, T24S, Y30S, T38K, T92S
notes: Mouse IgG, kappa light chain; also called clone #49
B10: no binding (tested: 3 µg/ml) [2].

B11: antibody 56 (antibody, V domains shown)
VH: B1 VH with A3T, S42P, A51T, P63S, A64V, A75T, A80V, G101A, N102A
VL: B1 VL with R18K, N26S, R28S, I29V, L45V, A54S, N86Y
notes: Mouse IgG, kappa light chain; also called clone #56
B11: no binding (tested: 3 µg/ml) [2].

B12: antibody 54 (antibody, V domains shown)
VH: QVTLKESGPGILQPSQTLSLTCSFSGFSLSTFGLGVGWIRQPSGKGLECLAHIWWDDDKYSNPALKSRLTISKDTSKNQVFLKIANVDSADTATYFCARILNYGSNYWYFDVWGTGTTVTVSS
VL: B1 VL with I10L, R18K, N26S, R28S, Y70F, I74V, N86Y, S91N
notes: Mouse IgG, kappa light chain; also called clone #54
B12: no binding (tested: 3 µg/ml) [2].

B13: antibody 48 (antibody, V domains shown)
VH: QVQLQQSGTELVRPGTSVKVSCKASGYAFTNYLIEWVKQRPGQGLEWIGVINPGSGFTKYNEKFKGKATLTADKSSSTVYMHLSSLTSEDSAVYFCARGLYRAMDYWGQGTSVTVSS
VL: DIQMTQSPASQSASLGESVTITCLASQTIATWLAWYQQKPGKSPQLLIYGATTLADGVPSRFSGGGSGTKFSFKISSLQAEDFVSYYCQQLYSTPYTFGGGTKLEIK
notes: Mouse IgG, kappa light chain; also called clone #48; purified antibody 48
B13: no binding (tested: 3 µg/ml) [2].

B14: antibody 47 (antibody, V domains shown)
VH: B13 VH with T9A, K59N, T69I, T71N, V79A, H82Q, S84I, G99D, Y101K, Y106H
VL: B13 VL with A30G, Y49H, G50A, T53S, G65S, L91I, T94S
notes: Mouse IgG, kappa light chain; also called clone #47
B14: no binding (tested: 3 µg/ml) [2].

B15: antibody 51 (antibody, V domains shown)
VH: QVQLQQSGAELVKPGASVKISCKASGYTFSNYWMNWVKQRPGKGLEWIGQIYPGDGDTKYNGKFKNKATLTADKSSSTAYMQFSSLTSEDSAVYFCARGDLVFVYWGLGTLVTVSA
VL: DVQITQSPSYLAVSPGETITINCRASKNIRKYLAWYQEKPGKTNKLLIYSGSTSQSGVPSRFSGSGSGTDFTLTISSLEPEDFAMYYCQQHNEYPYTFGGGTKLEIK
notes: Mouse IgG, kappa light chain; also called clone #51
B15: no binding (tested: 3 µg/ml) [2].
